From patent US7892769B2, “Processing of EphA4 polypeptide by γ-secretase activity” (Eisai R&D Management Co., Ltd., priority 2007, dated 2011)

B1: EICD Δ3: HA-tagged EphA4 intracellular deletion mutant, 661 amino acid-Stop, SEQ ID NO: 172 (protein, listed as Rattus norvegicus)
chain: MDYPYDVPDYATRVDDKQRRDFLSEASIMGQFDHPNIIHLEGVVTKCKPVMIITEYMENGSLDAFLRKNDGRFTVIQLVGMLRGIGSGMKYLSDMSYVHRDLAARNILVNSNLVCKVSDFGMSRVLEDDPEAAYTTRGGKIPIRWTAPEAIAYRKFTSASDVWSYGIVMWEVMSYGERPYWDMSNQDVIKAIEEGYRLPPPMDCPIALHQLMLDCWQKERSDRPKFGQIVNMLDKLIRNPNSLKRTGPESSRPNTALLDPSSPEFSAVVSVGDWLQAIKMDRYKDNFTAAGYTTLEAVVHMSQDDLARIGITAITHQNKILSSVQAMRTQMQQMHGRMVPV
modifications: HA tag
B2: HA-EICD: rat EphA4 intracellular domain (amino acid 571 to stop) with N-terminal HA tag, SEQ ID NO: 94, expressed by transfection (protein, listed as Rattus norvegicus)
chain: MDYPYDVPDYATRVERRRSKYSQAKQEADEEKHLNQGVRTYVDPFTYEDPNQAVREFAKEIDASCIKIEKVIGVGEFGEVCSGRLKVPGKREICVAIKTLKAGYTDKQRRDFLSEASIMGQFDHPNIIHLEGVVTKCKPVMIITEYMENGSLDAFLRKNDGRFTVIQLVGMLRGIGSGMKYLSDMSYVHRDLAARNILVNSNLVCKVSDFGMSRVLEDDPEAAYTTRGGKIPIRWTAPEAIAYRKFTSASDVWSYGIVMWEVMSYGERPYWDMSNQDVIKAIEEGYRLPPPMDCPIALHQLMLDCWQKERSDRPKFGQIVNMLDKLIRNPNSLKRTGPESSRPNTALLDPSSPEFSAVVSVGDWLQAIKMDRYKDNFTAAGYTTLEAVVHMSQDDLARIGITAITHQNKILSSVQAMRTQMQQMHGRMVPV
modifications: N-terminal HA tag
B3: HA-γ-fragment: γ-secretase-cleaved rat EphA4 intracellular fragment with N-terminal HA tag, SEQ ID NO: 198, expressed by transfection (protein)
chain: MSALLILALVGAAVAGSEFTRVEVTTNTVPSRIIGDGANSTVLLVSVSGSVVLVVILIAAFVISRRRSKYSQAKQEADEEKHLNQGVRTYVDPFTYEDPNQAVREFAKEIDASCIKIEKVIGVGEFGEVCSGRLKVPGKREICVAIKTLKAGYTDKQRRDFLSEASIMGQFDHPNIIHLEGVVTKCKPVMIITEYMENGSLDAFLRKNDGRFTVIQLVGMLRGIGSGMKYLSDMSYVHRDLAARNILVNSNLVCKVSDFGMSRVLEDDPEAAYTTRGGKIPIRWTAPEAIAYRKFTSASDVWSYGIVMWEVMSYGERPYWDMSNQDVIKAIEEGYRLPPPMDCPIALHQLMLDCWQKERSDRPKFGQIVNMLDKLIRNPNSLKRTGPESSRPNTALLDPSSPEFSAVVSVGDWLQAIKMDRYKDNFTAAGYTTLEAVVHMSQDDLARIGITAITHQNKILSSVQAMRTQMQQMHGRMVPVAAAMDYPYDVPDYA
modifications: N-terminal HA tag; synthetic DNA
B4: EICD Δ2: HA-tagged EphA4 intracellular deletion mutant, 622 amino acid-Stop, SEQ ID NO: 170 (protein, listed as Rattus norvegicus)
chain: MDYPYDVPDYATRVDKIEKVIGVGEFGEVCSGRLKVPGKREICVAIKTLKAGYTDKQRRDFLSEASIMGQFDHPNIIHLEGVVTKCKPVMIITEYMENGSLDAFLRKNDGRFTVIQLVGMLRGIGSGMKYLSDMSYVHRDLAARNILVNSNLVCKVSDFGMSRVLEDDPEAAYTTRGGKIPIRWTAPEAIAYRKFTSASDVWSYGIVMWEVMSYGERPYWDMSNQDVIKAIEEGYRLPPPMDCPIALHQLMLDCWQKERSDRPKFGQIVNMLDKLIRNPNSLKRTGPESSRPNTALLDPSSPEFSAVVSVGDWLQAIKMDRYKDNFTAAGYTTLEAVVHMSQDDLARIGITAITHQNKILSSVQAMRTQMQQMHGRMVPV
modifications: HA tag
B5: EICD Δ4: HA-tagged EphA4 intracellular deletion mutant, 701 amino acid-Stop, SEQ ID NO: 174 (protein, listed as Rattus norvegicus)
chain: MDYPYDVPDYATRVDYMENGSLDAFLRKNDGRFTVIQLVGMLRGIGSGMKYLSDMSYVHRDLAARNILVNSNLVCKVSDFGMSRVLEDDPEAAYTTRGGKIPIRWTAPEAIAYRKFTSASDVWSYGIVMWEVMSYGERPYWDMSNQDVIKAIEEGYRLPPPMDCPIALHQLMLDCWQKERSDRPKFGQIVNMLDKLIRNPNSLKRTGPESSRPNTALLDPSSPEFSAVVSVGDWLQAIKMDRYKDNFTAAGYTTLEAVVHMSQDDLARIGITAITHQNKILSSVQAMRTQMQQMHGRMVPV
modifications: HA tag
B6: EICD Δ1: HA-tagged EphA4 intracellular deletion mutant, 587 amino acid-Stop, SEQ ID NO: 168 (protein, listed as Rattus norvegicus)
chain: MDYPYDVPDYATRVDKHLNQGVRTYVDPFTYEDPNQAVREFAKEIDASCIKIEKVIGVGEFGEVCSGRLKVPGKREICVAIKTLKAGYTDKQRRDFLSEASIMGQFDHPNIIHLEGVVTKCKPVMIITEYMENGSLDAFLRKNDGRFTVIQLVGMLRGIGSGMKYLSDMSYVHRDLAARNILVNSNLVCKVSDFGMSRVLEDDPEAAYTTRGGKIPIRWTAPEAIAYRKFTSASDVWSYGIVMWEVMSYGERPYWDMSNQDVIKAIEEGYRLPPPMDCPIALHQLMLDCWQKERSDRPKFGQIVNMLDKLIRNPNSLKRTGPESSRPNTALLDPSSPEFSAVVSVGDWLQAIKMDRYKDNFTAAGYTTLEAVVHMSQDDLARIGITAITHQNKILSSVQAMRTQMQQMHGRMVPV
modifications: HA tag

Columns and labels:
NIH3T3 cells = assay: Lamellipodia formation (Rac1 activation indicator) after gene transfer into NIH3T3 cells; assay type: cell-based; conditions: for ratios of lamellipodia forming cells: EICD deletion mutants transfected separately, compared with HA, FIG. 8; for lamellipodia formation promotive capacity: cotransfected with Rac1N17 (dominant negative form of Rac1); for lamellipodia formation promotive capacity / lamellipodia formation: FIG. 6, FIG. 7; for lamellipodia formation: fragment gene transfected alone, vs HA control
Procedure: In order to examine whether or not EICD produced by γ-secretase is involved in the signaling mechanism of Rho family molecules, and activation of which molecule EICD is involved in, gene transfer into NIH3T3 cells was performed, followed by analysis of the effect of EICD in the rearrangement of actin cytoskeletons in which Rho family molecules are involved. In the rearrangement, the following facts are known: when RhoA is activated, actin fibers called stress fibers are formed at the bottom of cells; when Cdc42 is activated, protrusions called filopodia are formed; when Rac1 is activated, structures called lamellipodia are formed. The effect of EICD was examined with these formations as indicators.
NIH3T3 cells were cultured in 10% CBS (flow)/Antibiotic-Antimycotic (Invitrogen)/DMEM (Invitrogen) under 5% CO2 at 37° C. Genes encoding HA-EICD (SEQ ID NO: 93) or EICD+Rac1N17 (SEQ ID NO: 200) were transfected into the cells with Lipofectamine 2000 (Invitrogen). Eighteen hours later, the cells were replated in wells provided with poly-L-lysin (SIGMA)-coated 13 mm cover glass. Eighteen hours thereafter, the cells were fixed in 2% paraformaldehyde (Wako), treated with 0.25% TritonX-100 and blocked with BlockAce (Snow Brand Milk Products). After the blocking, the cells were treated with rat anti-HA antibody (Roche), followed by reaction with FITC-linked anti-rat IgG antibody (Jackson) and Alexa Fluor phalloidin 546 (Molecular probes).
In the above-mentioned Example 6, the EphA4 fragment used in Example 5 (SEQ ID NO: 197) was transfected instead of the HA-EphA4 intracellular fragment and lamellipodia formation was analyzed in the same way.
Genes encoding HA, HA-EICD (SEQ ID NO: 93) and various EICD mutants (HA-EICD Δ1 to HA-EICD Δ4) prepared in (1) above were transfected to NIH3T3 cells separately in the same manner as described in Examples 6 and 7. Then, ratios of lamellipodia forming cells were examined. In the various EICD mutants described below, capital letters appearing at the 5′ end of the nucleotide sequences represent a nucleotide sequence encoding HA tag. Small letters appearing at the 3′ end represent a nucleotide sequence encoding EphA4 intracellular fragment.

[1] = test system: primary culture of rat hippocampal neurons; assay: Spine formation analysis by overexpression of EphA4 fragments in primary culture of rat hippocampal neurons; assay type: cell-based; conditions: fragment gene transfected on day 9 of culture, counted twelve days after gene transfer, GFP-visualized; vs HA control; FIG. 4, FIG. 5
Procedure: Primary culture of rat hippocampal neurons were cultured in the same manner as described in Example 2. On day 9 of culture, gene transfer experiment was performed using Lipofectamine 2000 (Invitrogen) according to the manual. In order to visualize the morphology of spines, pcDNA3.1Syn1 GFP (SEQ ID NO: 306) was co-transferred into the neurons. Twelve days after the gene transfer, the neurons were fixed with 2% paraformaldehyde, treated with 0.25% TritonX-100 and blocked with BlockAce (Snow Brand Milk). After the blocking, the neurons were treated with rabbit anti-GFP antibody (Invitrogen) and rat anti-HA antibody (Roche); and reacted with FITC-linked anti-rabbit IgG antibody (Jackson), Cy3-linked anti-mouse IgG antibody (Jackson) and Cy5-linked anti-rat IgG antibody (Jackson). […] The spines (protuberances formed on dendrites) which were visualized by the expression of GFP were counted. Image data were quantitatively determined with image analysis software Metamorph (Molecular Devices). pcDNA3.1Syn1 GFP may be obtained by the procedures described below.
In the above-mentioned Example 4, the gene with an HA tag added to its N-terminus (SEQ ID NO:197), which is one of the two cleaved fragments, was transfected instead of the HA-EphA4 intracellular fragment and spine formation was analyzed in the same way based on the cleavage site specified in Example 3.

| Molecule | ratios of lamellipodia forming cells (NIH3T3 cells) | number of spines [1] | lamellipodia formation promotive capacity (NIH3T3 cells) | lamellipodia formation (NIH3T3 cells) |
| --- | --- | --- | --- | --- |
| B1 | almost the same level as that of HA |  |  |  |
| B2 |  | increases the number of spines | disappeared completely | lamellipodia formation is promoted |
| B3 |  | increases the number of spines | disappeared completely | promotes lamellipodia formation |
| B4 | almost the same level as that of HA |  |  |  |
| B5 | almost the same level as that of HA |  |  |  |
| B6 | lamellipodia forming cells are increased |  |  |  |
